Measurements reported in patent US11634743B2, “Coupled, self-sufficient biotransformation of chenodeoxcholic acid to ursodeoxycholic acid and novel enzyme mutants applicable in said process” (Pharmazell GmbH, priority 2016, dated 2023).
Numbering of substitutions follows the chain as printed. Names may count otherwise.

Experiments:
[1] = Coupled one-step conversion of CDCA to UDCA with isolated enzymes, NAD(H) as cofactor; type: biochemical; conditions: 25 mM CDCA, 100 mM KPi pH 7.0, 25° C., 0.25 mM NAD^+
[2] = Coupled one-step conversion of CDCA to UDCA with isolated enzymes, NADP(H) as cofactor; type: biochemical; conditions: 10 mM CDCA, 100 mM KPi pH 6.0, 25° C., 0.5 mM NADP^+
Method: The enzymatic synthesis of UDCA with isolated enzymes was performed standardized in 100 mM KPi buffer (pH 7.0) at 25° C. The reaction mixtures were magnetically stirred at 500 to 700 rpm. The cofactor concentration was 0.25 mM NAD^+. For the biotransformation with NAD^+ as cofactor, the reaction was performed with […] enzyme, and for the biotransformation with NADP^+ as cofactor the reaction was performed with 0.5 U/ml 7α-HSDH and 1.0 U/ml 7β-HSDH. After pre-determined time intervals, samples were taken and analyzed by means of HPLC.
In a second experiment, the biotransformation was performed in a one-step process with NADP(H) as cofactor. The enzymatic conversion of 10 mM CDCA was performed in 100 mM KPi buffer pH 6.0 at 25° C. with the 7β-HSDH [G39S/R64E] (SEQ ID NO:45) and the Cd7α-HSDH from C. difficile (SEQ ID NO:35) in a one-step process. The cofactor concentration was 0.5 mM NADP^+. For the 7-KLCA reduction, a […] 7β-HSDH from C. aerofaciens was applied and for the CDCA oxidation step the 7α-HSDH from C. difficile was applied. As illustrated a one-step conversion of CDCA in a directly coupled oxidation and reduction reaction with a NADP^+-dependent 7β-HSDH is operable.

[3] = Photometric activity assay of E. coli 7α-HSDH wildtype and mutants (crude extracts); type: biochemical; conditions: crude extract, substrate CDCA
Method: The reaction mixture contained in a total volume of 1 ml:
880 μl 50 mM potassium phosphate (KPi) buffer, pH 8.0
100 μl 100 mM CDCA (dissolved in 50 mM KPi, pH 8)
10 μl Enzyme solution (in buffer as above, in the range of 2 to 6 U/ml)
10 μl 50 mM NAD^+ or NADP^+ (dissolved in ddH2O)
An increase of extinction was determined at 340 nm over a period of 30 seconds and the activity was expressed as enzyme unit (1 U corresponds to a conversion of 1 μmol NAD(P)H/min). The molar extinction coefficient was 6.22 mM^−1×cm^−1.
The photometric activity assay of the crude extract was performed by means of a UV-1700 spectrophotometer (Shimadzu, Japan) (see method described above under item 1.7). In Table 8, the specific activity values of individual mutants as obtained for NAD^+ and NADP^+ are summarized.

[4] = CDCA as substrate
[5] = Small-scale biotransformation of CDCA to 7-KLCA with Cd7α-HSDH and NAD(P)H oxidase, HPLC; type: biochemical; conditions: 10 mM CDCA, NADP^+ regenerated by NAD(P)H oxidase, after 18.5 h
Method: FIG. 5: Biotransfomation of CDCA (10 mM) in aqueous system (KPi, pH 7.0), containing 5 U Cd7α-HSDH and 50 U NOX during 18.5 hours. After 3.5 h and 7 h additional 50 U NOX were added to the reaction. Concentration of CDCA (-∘-CDCA) and 7-KLCA (-⋅-7-KLCA) were determined by HPLC.
HPLC analysis was performed on a Purospher® STAR RP-18 column (Merck, Germany) on a HPLC LC-2010AHT-System (Shimadzu, Japan) at a flow rate of 1 ml/min. The mobile phase consisted of two eluents. Eluent A was distilled water (pH 2.6 adjusted with orthophosphoric acid 85%) and eluent B HPLC-grade acetonitrile. The starting condition for the gradient program was 65% eluent A and 35% eluent B. The system was monitored by UV detector at 200 nm. Totally, 20 μl samples with a bile acid concentration in the range of 1 mg/ml were analyzed. Authentic samples of CDCA, 7-KLCA and UDCA at the same concentration were used as references.
For the biotransformation in a small-scale 10 mM CDCA in KPi-buffer (100 mM, pH 7.0), 0.1 mM NADP^+, 0.5 U mL^−1 Cd7α-HSDH and 5 U mL^−1 NADPH-oxidase were incubated at 25° C. The biotransformation were done in glass vials with a stirring bar in it and a stirrer speed of 500 rpm for 18 hours. Samples were taken periodically and diluted with methanol-water (pH 2.6) (9:1 v/v) for H PLC-analysis. […]

B1: 7β-HSDH [G39E]: NAD(H)-dependent 7β-HSDH mutant G39E from C. aerofaciens, SEQ ID NO:48 (C-His-Tag) (protein)
chain: MNLREKYGEWGLILGATEGVGKAFCEKIAAGGMNVVMVERREEKLNVLAGEIRETYGVETKVVRADFSQPGAAETVFAATEGLDMGFMSYVACLHSFGKIQDTPWEKHEAMINVNVVTFLKCFHHYMRIFAAQDRGAVINVSSMTGISSSPWNGQYGAGKAFILKMTEAVACECEGTGVDVEVITLGTTLTPSLLSNLPGGPQGEAVMKIALTPEECVDEAFEKLGKELSVIAGQRNKDSVHDWKANHTEDEYIRYMGSFYRDLEHHHHHH
modifications: C-terminal His-tag; 7beta-HSDH Mutante [G39E] C. aerofaciens + C-terminal His-Tag
one-step conversion of CDCA in directly coupled oxidation and reduction [1]: operable

B2: 7β-HSDH [G39S/R64E]: NADP+-dependent 7β-HSDH double mutant G39S/R64E from C. aerofaciens, SEQ ID NO:45 (protein)
chain: B1 chain with E39S, R64E
modifications: 7beta-HSDH Mutant [G39S/R64E] C. aerofaciens + C-terminal His-tag
one-step conversion of CDCA in directly coupled oxidation and reduction [2]: operable

B3: 7α-HSDH [D42G/I43R]: NADP+-dependent double mutant D42G/I43R of E. coli 7α-HSDH, SEQ ID NO: 41 (N-His-Tag) (protein)
chain: MGSSHHHHHHSSGLVPRGSHMFNSDNLRLDGKCAIITGAGAGIGKEIAITFATAGASVVVSGRNADAANHVVDEIQQLGGQAFACRCDITSEQELSALADFAISKLGKVDILVNNAGGGGPKPFDMPMADFRRAYELNVFSFFHLSQLVAPEMEKNGGGVILTITSMAAENKNINMTSYASSKAAASHLVRNMAFDLGEKNIRVNGIAPGAILTDALKSVITPEIEQKMLQHTPIRRLGQPQDIANAALFLCSPAASWVSGQILTVSGGGVQELN
modifications: N-terminal His-tag; 7alpha HSDH E. coli mutant D42G/I43R + N-terminal His-Tag
activity with NADP^+ [3]: 6.3 U/mg
activity with NAD^+ [3]: 0.1 U/mg
activity with NADP^+ ([3]; listed as no. 4): about 6.3 U/mg
activity with NAD^+ ([3]; listed as no. 4): only marginal activity

B4: 7α-HSDH [wildtype]: NAD+-dependent 7α-HSDH of E. coli, wildtype, SEQ ID NO: 38 (N-His-Tag) (protein)
chain: B3 chain with G62D, R63I
modifications: N-terminal His-tag; E. coli 7alpha HSDH WT + N-terminal His Tag
activity with NADP^+ [3]: 0 U/mg
activity with NAD^+ [3]: 51.6 U/mg

B5: 7α-HSDH [D42A/I43R]: double mutant D42A/I43R of E. coli 7α-HSDH (SEQ ID NO: 37) (protein, listed as Escherichia coli)
chain: MFNSDNLRLDGKCAIITGAGAGIGKEIAITFATAGASVVVSARNADAANHVVDEIQQLGGQAFACRCDITSEQELSALADFAISKLGKVDILVNNAGGGGPKPFDMPMADFRRAYELNVFSFFHLSQLVAPEMEKNGGGVILTITSMAAENKNINMTSYASSKAAASHLVRNMAFDLGEKNIRVNGIAPGAILTDALKSVITPEIEQKMLQHTPIRRLGQPQDIANAALFLCSPAASWVSGQILTVSGGGVQELN
activity with NADP^+ [3]: 2.1 U/mg
activity with NAD^+ [3]: 0 U/mg

B6: 7α-HSDH [D42G]: single mutant D42G of E. coli 7α-HSDH (SEQ ID NO: 37) (protein, listed as Escherichia coli)
chain: B5 chain with A42G, R43I
activity with NADP^+ [3]: 0.3 U/mg
activity with NAD^+ [3]: 0.4 U/mg

B7: 7α-HSDH [I43R]: single mutant I43R of E. coli 7α-HSDH (SEQ ID NO: 37) (protein, listed as Escherichia coli)
chain: B5 chain with A42D
activity with NADP^+ [3]: 0.4 U/mg
activity with NAD^+ [3]: 51.8 U/mg

B8: Cd7α-HSDH: NADP+-dependent 7α-hydroxysteroid dehydrogenase from Clostridium difficile (DSM 12056), SEQ ID NO: 34; with N-His-tag SEQ ID NO: 35 (protein)
chain: MEKLQGKIAVVTAATKGIGLASAEILAKNGATVYLAARSEELAHEVINKISAEGGCAKFVYFNAREEETFTSMIEEVVKKEGKIDILVNNFGSTNPSLDKDLVTGDTDNFFDTVNTNLKSVYLPCKAAIPHMIKNGKGSIVNISSIGSVLPDLSRIAYCVSKAAINSLTQNIATQYAKDNVRCNAVLPGLIATKAALDNMSPEFIKEFLKHVPLNRIGEPDDIAKAVLFYASDDSSFITGDLLEVAGGFGLPTPQFADNILG
modifications: Clostridium difficile
activity ([4]; 45° C.): 11 U mg^−1
activity (maximum) ([4]; 60° C.): 77 U mg^−1
temperature of maximum activity ([4]; investigated between 15 and 65° C.): 60 °C
conversion of CDCA to 7-KLCA [5]: > 99%
conversion of CDCA to 7-KLCA ([5]; listed as enzyme from C. difficile): < 99%
one-step conversion of CDCA in directly coupled oxidation and reduction [2]: operable
